# Experimental data: patent US20240002482A1 (BEIJING SOLOBIO GENETECHNOLOGY, published 2024)
# B1: anti-PcrV/anti-Psl bispecific antibody STS7B15925M (bispecific antibody)
# heavy: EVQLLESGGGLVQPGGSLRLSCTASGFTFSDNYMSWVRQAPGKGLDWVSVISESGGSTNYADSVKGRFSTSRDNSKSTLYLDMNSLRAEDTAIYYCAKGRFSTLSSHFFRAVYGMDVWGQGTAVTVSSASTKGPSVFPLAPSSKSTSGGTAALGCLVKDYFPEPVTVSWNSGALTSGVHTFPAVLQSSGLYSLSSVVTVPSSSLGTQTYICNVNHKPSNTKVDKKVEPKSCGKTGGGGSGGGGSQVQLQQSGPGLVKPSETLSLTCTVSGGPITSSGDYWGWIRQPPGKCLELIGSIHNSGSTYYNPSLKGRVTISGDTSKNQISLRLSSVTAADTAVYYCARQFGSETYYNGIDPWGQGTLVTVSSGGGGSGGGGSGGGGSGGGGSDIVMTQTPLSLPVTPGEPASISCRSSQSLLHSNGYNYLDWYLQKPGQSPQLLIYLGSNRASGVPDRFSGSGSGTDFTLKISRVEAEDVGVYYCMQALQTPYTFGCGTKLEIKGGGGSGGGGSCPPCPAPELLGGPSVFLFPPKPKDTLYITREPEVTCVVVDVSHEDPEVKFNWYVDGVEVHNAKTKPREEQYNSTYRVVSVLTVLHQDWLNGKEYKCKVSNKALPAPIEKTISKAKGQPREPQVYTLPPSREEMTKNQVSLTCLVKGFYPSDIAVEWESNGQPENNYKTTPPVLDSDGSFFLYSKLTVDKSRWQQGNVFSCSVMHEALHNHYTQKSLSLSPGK
# light: DIQLTQSPSSLSASVGDRVTITCRASQGISSYLAWYQQKPGKAPKLLIYAASTLQSGVPSRFSGSGSGTDFTLTISSLQPEDFATYYCQQLSSYPLTFGGGTKVEIKRTVAAPSVFIFPPSDEQLKSGTASVVCLLNNFYPREAKVQWKVDNALQSGNSQESVTEQDSKDSTYSLSSTLTLSKADYEKHKVYACEVTHQGLSSPVTKSFNRGEC
# notes: Chimeric heavy chain: VH-CH1-linker-scFv(anti-Psl)-linker-CH2-CH3; The Fab is from 7B1 (anti-PcrV); Optimized variant of STS7B15925
# B2: anti-PcrV/anti-Psl bispecific antibody STS7B15921M (bispecific antibody)
# heavy: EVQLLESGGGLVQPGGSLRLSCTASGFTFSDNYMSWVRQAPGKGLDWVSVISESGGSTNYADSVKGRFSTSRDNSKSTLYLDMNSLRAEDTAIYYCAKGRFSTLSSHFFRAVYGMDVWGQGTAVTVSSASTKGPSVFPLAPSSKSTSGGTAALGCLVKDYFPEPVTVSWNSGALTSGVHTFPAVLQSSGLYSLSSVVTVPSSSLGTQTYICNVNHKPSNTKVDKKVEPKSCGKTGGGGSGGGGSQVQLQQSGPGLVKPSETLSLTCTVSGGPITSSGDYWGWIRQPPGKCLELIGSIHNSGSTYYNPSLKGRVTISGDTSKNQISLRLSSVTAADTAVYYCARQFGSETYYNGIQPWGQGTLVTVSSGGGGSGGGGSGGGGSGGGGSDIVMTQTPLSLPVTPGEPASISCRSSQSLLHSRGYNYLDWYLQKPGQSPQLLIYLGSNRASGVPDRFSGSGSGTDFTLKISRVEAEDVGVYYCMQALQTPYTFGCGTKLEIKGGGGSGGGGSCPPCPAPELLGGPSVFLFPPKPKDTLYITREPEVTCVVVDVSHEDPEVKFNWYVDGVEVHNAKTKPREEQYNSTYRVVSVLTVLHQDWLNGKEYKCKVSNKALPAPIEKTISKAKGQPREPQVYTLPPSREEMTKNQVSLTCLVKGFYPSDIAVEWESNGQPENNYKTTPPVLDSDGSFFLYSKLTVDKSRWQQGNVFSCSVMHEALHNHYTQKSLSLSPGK
# light: B1 light
# notes: Chimeric heavy chain: 7B1 VH-CH1-linker-scFv(anti-Psl P5921)-linker-CH2-CH3
# B3: anti-PcrV/anti-Psl bispecific antibody STS7B112M (bispecific antibody)
# heavy: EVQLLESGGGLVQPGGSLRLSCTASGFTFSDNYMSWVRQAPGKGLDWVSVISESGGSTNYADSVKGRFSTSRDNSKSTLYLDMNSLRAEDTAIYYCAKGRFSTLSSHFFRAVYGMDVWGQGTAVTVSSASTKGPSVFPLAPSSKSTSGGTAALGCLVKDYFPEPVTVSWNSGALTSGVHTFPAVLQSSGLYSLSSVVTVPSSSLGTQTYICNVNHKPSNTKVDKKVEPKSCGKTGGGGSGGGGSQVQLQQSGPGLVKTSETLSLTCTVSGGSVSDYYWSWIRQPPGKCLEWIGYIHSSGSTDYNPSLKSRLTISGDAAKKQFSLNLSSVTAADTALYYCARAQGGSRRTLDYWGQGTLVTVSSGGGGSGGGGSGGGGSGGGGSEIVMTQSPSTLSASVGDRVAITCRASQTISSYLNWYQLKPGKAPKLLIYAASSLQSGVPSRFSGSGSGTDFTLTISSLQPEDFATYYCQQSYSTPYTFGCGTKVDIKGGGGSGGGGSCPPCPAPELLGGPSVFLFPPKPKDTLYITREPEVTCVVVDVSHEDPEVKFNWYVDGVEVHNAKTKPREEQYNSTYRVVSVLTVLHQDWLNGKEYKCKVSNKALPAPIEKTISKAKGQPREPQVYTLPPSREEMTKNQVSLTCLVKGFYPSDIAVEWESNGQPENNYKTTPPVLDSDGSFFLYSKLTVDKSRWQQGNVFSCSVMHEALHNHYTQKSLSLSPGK
# light: B1 light
# notes: Chimeric heavy chain: 7B1 VH-CH1-linker-scFv(anti-Psl 3F12)-linker-CH2-CH3
# B4: anti-PcrV/anti-Psl bispecific antibody STS7B11201M (bispecific antibody)
# heavy: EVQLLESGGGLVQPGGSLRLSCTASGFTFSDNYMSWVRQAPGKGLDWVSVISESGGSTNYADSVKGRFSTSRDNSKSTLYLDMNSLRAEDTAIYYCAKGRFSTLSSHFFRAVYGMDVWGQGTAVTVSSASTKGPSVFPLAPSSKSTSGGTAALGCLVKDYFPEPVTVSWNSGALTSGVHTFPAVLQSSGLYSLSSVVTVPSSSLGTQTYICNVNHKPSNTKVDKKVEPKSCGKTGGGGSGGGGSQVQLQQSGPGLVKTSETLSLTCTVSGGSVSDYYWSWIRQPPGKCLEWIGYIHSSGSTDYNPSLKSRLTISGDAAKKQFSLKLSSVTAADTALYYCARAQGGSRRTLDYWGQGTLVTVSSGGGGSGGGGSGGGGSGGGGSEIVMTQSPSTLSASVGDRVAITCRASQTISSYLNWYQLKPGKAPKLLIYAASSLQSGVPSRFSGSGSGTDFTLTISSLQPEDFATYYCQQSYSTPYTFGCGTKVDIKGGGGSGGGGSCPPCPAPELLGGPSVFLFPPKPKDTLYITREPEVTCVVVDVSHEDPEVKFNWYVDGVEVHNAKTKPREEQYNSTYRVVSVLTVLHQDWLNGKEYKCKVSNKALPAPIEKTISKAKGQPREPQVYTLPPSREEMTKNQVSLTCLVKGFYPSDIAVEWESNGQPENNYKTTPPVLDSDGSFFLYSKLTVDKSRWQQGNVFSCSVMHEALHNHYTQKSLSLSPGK
# light: B1 light
# B5: anti-PcrV/anti-Psl bispecific antibody STS7B1H924M (bispecific antibody)
# heavy: EVQLLESGGGLVQPGGSLRLSCTASGFTFSDNYMSWVRQAPGKGLDWVSVISESGGSTNYADSVKGRFSTSRDNSKSTLYLDMNSLRAEDTAIYYCAKGRFSTLSSHFFRAVYGMDVWGQGTAVTVSSASTKGPSVFPLAPSSKSTSGGTAALGCLVKDYFPEPVTVSWNSGALTSGVHTFPAVLQSSGLYSLSSVVTVPSSSLGTQTYICNVNHKPSNTKVDKKVEPKSCGKTGGGGSGGGGSQVQLVQSGAEVKKPGASVKVSCKASGDTSTIHSVHWVRQAPGQCLEWMGTIISSGTTTTYAQSFQDRVSMTIDRSTSTGYMELSSLRFEDTAVYYCTTDGTSWGQGTLVTVSSGGGGSGGGGSGGGGSGGGGSDIQLTQSPSSVSASVGDRVTIACRASQGISSWLAWYQQKPGKAPKLLIYHASTLESGVPSRFSGSGSGTDFTLTISSLQPEDFATYYCLQASSLPHTFGCGTKLEIKGGGGSGGGGSCPPCPAPELLGGPSVFLFPPKPKDTLYITREPEVTCVVVDVSHEDPEVKFNWYVDGVEVHNAKTKPREEQYNSTYRVVSVLTVLHQDWLNGKEYKCKVSNKALPAPIEKTISKAKGQPREPQVYTLPPSREEMTKNQVSLTCLVKGFYPSDIAVEWESNGQPENNYKTTPPVLDSDGSFFLYSKLTVDKSRWQQGNVFSCSVMHEALHNHYTQKSLSLSPGK
# light: B1 light
# notes: Chimeric heavy chain: 7B1 VH-CH1-linker-scFv(anti-Psl 7H924)-linker-CH2-CH3
# B6: anti-PcrV/anti-Psl bispecific antibody STS7B11201S (bispecific antibody)
# heavy: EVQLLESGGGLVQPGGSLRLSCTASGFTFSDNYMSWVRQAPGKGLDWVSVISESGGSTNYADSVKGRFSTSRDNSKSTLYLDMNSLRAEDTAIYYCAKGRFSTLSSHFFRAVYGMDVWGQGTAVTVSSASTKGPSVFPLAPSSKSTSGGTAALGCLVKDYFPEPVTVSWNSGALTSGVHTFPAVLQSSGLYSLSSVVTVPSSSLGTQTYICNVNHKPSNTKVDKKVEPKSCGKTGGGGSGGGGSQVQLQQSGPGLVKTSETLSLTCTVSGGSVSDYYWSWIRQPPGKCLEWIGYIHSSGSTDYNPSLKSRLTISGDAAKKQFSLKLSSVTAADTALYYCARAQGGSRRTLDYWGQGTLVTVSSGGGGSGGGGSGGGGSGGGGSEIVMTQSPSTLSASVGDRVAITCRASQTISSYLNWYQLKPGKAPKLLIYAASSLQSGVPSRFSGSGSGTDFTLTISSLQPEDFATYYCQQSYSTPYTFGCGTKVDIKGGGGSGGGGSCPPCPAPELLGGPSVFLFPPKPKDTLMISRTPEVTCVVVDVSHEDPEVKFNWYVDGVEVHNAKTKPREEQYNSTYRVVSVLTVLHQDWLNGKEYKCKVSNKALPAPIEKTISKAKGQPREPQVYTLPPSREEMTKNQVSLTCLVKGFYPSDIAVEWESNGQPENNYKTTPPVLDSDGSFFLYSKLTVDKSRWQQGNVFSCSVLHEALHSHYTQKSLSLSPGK
# light: B1 light
# notes: also called STS7B112015
# B7: anti-PcrV antibody 7B1 (antibody, V domains shown)
# VH: EVQLLESGGGLVQPGGSLRLSCTASGFTFSDNYMSWVRQAPGKGLDWVSVISESGGSTNYADSVKGRFSTSRDNSKSTLYLDMNSLRAEDTAIYYCAKGRFSTLSSHFFRAVYGMDVWGQGTAVTVSS
# VL: DIQLTQSPSSLSASVGDRVTITCRASQGISSYLAWYQQKPGKAPKLLIYAASTLQSGVPSRFSGSGSGTDFTLTISSLQPEDFATYYCQQLSSYPLTFGGGTKVEIK
# notes: Monospecific antibody, optimized from the 13-42 lead
# B8: anti-PcrV/anti-Psl bispecific antibody STS7B159S (bispecific antibody)
# heavy: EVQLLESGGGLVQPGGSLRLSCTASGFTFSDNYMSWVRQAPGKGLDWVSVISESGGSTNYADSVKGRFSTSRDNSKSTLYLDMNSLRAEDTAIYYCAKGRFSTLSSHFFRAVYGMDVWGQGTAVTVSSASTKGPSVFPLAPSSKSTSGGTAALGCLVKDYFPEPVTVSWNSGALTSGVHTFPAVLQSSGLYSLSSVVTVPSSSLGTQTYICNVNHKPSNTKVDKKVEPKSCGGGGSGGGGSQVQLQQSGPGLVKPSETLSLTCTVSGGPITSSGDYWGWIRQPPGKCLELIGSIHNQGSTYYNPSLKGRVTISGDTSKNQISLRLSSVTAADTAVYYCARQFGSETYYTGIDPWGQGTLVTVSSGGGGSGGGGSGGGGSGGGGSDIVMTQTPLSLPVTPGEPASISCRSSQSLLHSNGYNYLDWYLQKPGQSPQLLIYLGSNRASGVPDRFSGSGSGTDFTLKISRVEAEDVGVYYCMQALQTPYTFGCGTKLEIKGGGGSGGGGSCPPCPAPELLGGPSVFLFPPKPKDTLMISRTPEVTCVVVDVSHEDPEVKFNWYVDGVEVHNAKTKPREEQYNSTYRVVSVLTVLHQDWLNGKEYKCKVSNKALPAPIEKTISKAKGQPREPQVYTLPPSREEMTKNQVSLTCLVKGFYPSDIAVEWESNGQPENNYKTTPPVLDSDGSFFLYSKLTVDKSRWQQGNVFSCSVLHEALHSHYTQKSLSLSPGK
# light: B1 light
# notes: also called STS7B1595
# Legend:
# [1] = target: T1, PcrV protein (Pseudomonas aeruginosa type III secretion system protein) (Pseudomonas aeruginosa); experiment: ELISA on plate-coated synthetic PcrV, detection with goat anti-human Fc-AP and pNPP, OD410
# T1 construct: The ELISA used 'synthetic PcrV' as plate coat; Biacore and BLI used 'PcrV protein' in solution; also called synthetic PcrV; Full-length PcrV
# Method: STS7B15925, STS7B1H9 and STS7B112 were further optimized by introducing variants in the VH, VL, and/or Fc, giving rise to STS7B15925M, STS7B15921M, STS7B1H9M, STS7B1H924M, STS7B112M, and STS7B11201M. For the ELISA experiment, synthetic PcrV or PAO1 was used to coat the wells of a 96-well plate. On the following day, after washing with PBST, blocking with 200 μL PBS-milk for an hour, and another wash with PBST, the respective antibodies were added and incubated for an hour at 37° C. The plate was washed with 0.1% TBST 6 times before 100 μL of Goat-anti-human Fc antibody-AP (1:3000 in PBS) was added to each well and incubated for an hour. After washing with 0.1% TBST for 6 times, 50 μL of pNPP (p-nitrophenyl phosphate) was added to each well and color was developed for […] at 37 C. Subsequently, the colorimetric signals were read by a microplate reader at 410 nm. The ELISA results (OD410) were analyzed and the EC50 values were calculated.
# [2] = target: T1, PcrV protein (Pseudomonas aeruginosa …); experiment: SPR (BIACORE T200), 25 C; antibody captured on CM5 chip, serial dilutions of PcrV protein injected
# Method: Binding affinity (Kd) of selected bispecific antibodies with respect to PcrV at 25° C. was determined using a real-time biosensor surface plasmon resonance assay (BIACORE™ T200). Briefly, the antibody was first captured on a CM5 chip to form an antibody surface. Serial dilutions of PcrV protein were injected over the antibody surface. Binding of antigen to antibody and dissociation of the bound complex were monitored in real time. Equilibrium dissociation constants (Kd) and dissociation rate constants were ascertained by performing kinetic analysis using BIA evaluation software.
Binder,binding result [1],Kd [2] [nM],koff [2] [s⁻¹],kon [2] [M⁻¹ s⁻¹]
B1,binds,,,
B2,binds,,,
B3,binds,,,
B4,binds,,,
B5,binds,,,
B6,,0.265,4.52e-05,170000
B7,,0.335,4.82e-05,144000
B8,,0.179,3.13e-05,174000
